Source: patent US20090068110A1, “ANTIBODIES TO INSULIN-LIKE GROWTH FACTOR RECEPTOR” (Genentech, Inc., priority 2006, published 2009)

Assays:
[1] = tested on: IGF-1R signaling (phospho-IGF-1R, AKT, ERK1/2); assay: Western blotting of IGF-1R signaling in MCF7 cells; type: cell-based, human; settings: for inhibition of IGF-I-mediated AKT activation: serum-starved MCF7, IGF-I 50 ng/ml; for inhibition of IGF-II-mediated IGF-1R phosphorylation and downstream AKT and MAPK1/2 activation: serum-starved MCF7, IGF-II 100 ng/ml
Procedure: Also examined was the effect of these antibodies on ligand-dependent IGF-1R signaling by directly analyzing IGF-1R phosphorylation as well as major downstream pathways, such as AKT and MAPK activation. In this assay, MCF7 cells were grown in 6-well plates and serum was withdrawn for 16 hours. […] The cells were directly lysed in SDS sample buffer, and the lysate was analyzed by Western blotting using antibodies against IGF-1R, phospho-IGF-1R, AKT, phospho-AKT, ERK1/2, phospho-ERK1/2 (also called MAPK1/2 and phospho-MAPK1/2) (all from Cell Signaling Technology, Inc.; Beverly, Mass., USA).
For the IGF-1R signaling pathway analysis, MCF7 cells were grown in six-well plates for 24 hours and then serum starved (serum-free and phenol-free RPMI medium supplemented with 1 mg/mL BSA) overnight. The cells were first incubated with h10H5 for 20 minutes, then stimulated with 50 ng/mL IGF-1 or 100 ng/mL IGF-11 for ten minutes. Cells were directly lysed in SDS sample buffer to preserve protein phosphorylation. After brief sonication, the lysates were separated by SDS-PAGE and transferred to nitrocellulose membranes (Invitrogen; Carlsbad, Calif.), which were probed with anti-phospho-IGF-1R, AKT, and ERK1/2 antibodies. The same blots were then stripped using Stripping Buffer™ (Pierce Biotechnology; Rockford, Ill.) and re-probed with antibodies against total IGF-1R β, AKT, and ERK1/2.

SJCRH30 = assay: cell viability assay, SJCRH30; type: cell-based, human; design: key: +: growth inhibition; −: no or weak effect; settings: SJCRH30, Rhabdomyosarcoma
Procedure: The different cell lines were cultured in their respective culture media at 37° C. in a humidified atmosphere of 5% CO2. Subsequently, cells were detached from tissue-culture flasks using the cell-dissociation solution, TRIPLE SELECT™ solution (InVitrogen, Carlsbad, Calif., USA), and centrifuged at 1000 rpm for five minutes. Detached cells were washed once with PBS, counted, and seeded in 96-well plates (Corning, N.Y., USA) at 2000 cells per well in 100 μL of culture media. After an overnight incubation at 37° C. in a humidified atmosphere of 5% CO2, the cell-culture medium was replaced with 50 μL of starvation medium consisting of serum-free RPMI 1640™ medium without phenol red. The cells were then starved for five hours in the incubator before addition of 25 μL of each anti-IGF-1R monoclonal antibody at various dilutions in serum-free RPMI 1640™ phenol red-free media. Later, 25 μL of phenol red-free RPMI 1640™ media supplemented with 4% of fetal bovine serum (FBS) (Sigma) with or without 4 ng/ml of human recombinant IGF-I were added on top of the 50 μL of antibody. The cells were then placed at 37° C. with 5% CO2 for 5 to 6 days. At the end of the assay, cell viability was measured using the […]-GLO® kit according to the manufacturer's instructions (Promega, Madison, Wis., USA).

B1: 9F2: mouse monoclonal anti-IGF-1R antibody from hybridoma 9F2.6.2, ATCC PTA-7018 (antibody, V domains shown)
VH: QIQLVQSGPELKKPGETVKISCKASGYTLANYGMNWVKQAPGKGFKWMGWINTNTGKPTYSDEFKGRFVFSLETSASTAYLLINNLSNEDTATYFCARSIYYYGSRYFNVWGAGTT
VL: DIQMTQSTSSLSASLGDRVTISCRASQDINNYLTWYQQKPDGTVKLLIYYTSRLHSGVPSRFSGSGSGTDYSLTITNLEQEDFATYFCQQGNTLPWTFGEGTKVEIKR
**Q.** B1 was tested. Which “inhibition of IGF-I-mediated AKT activation” value [1] did it give?
**A.** Its value is “potently prevented AKT activation”.

**Q.** What about the “inhibition of IGF-II-mediated IGF-1R phosphorylation and downstream AKT and MAPK1/2 activation” value [1] of the same molecule?
**A.** Its value is “remained as strong inhibitors”.

**Q.** And the “Effect of IR3, 6D2, 9F2, and 10H5” value (SJCRH30)?
**A.** The value was “+”.

B2: 10H5: mouse monoclonal anti-IGF-1R antibody from hybridoma 10H5.3.4, ATCC PTA-7007 (antibody, V domains shown)
VH: QVQLQQPGAELVKPGASVTLSCKASGYTFTRFWIHWVKQRPGQGLEWIGEINPSNGRTNYNENFKNKATLTVDTSSSTAYMQLSSLTSEVSVVYYCARGGRLDQWGQGTT
VL: DIVMTQSQKFMSTSLGDRVSVTCKASQNVGSNVAWYQQKPGQSPEALIYSASYRYSGVPDRFTGSGSGTDFTLTISNVQSEDLAEYFCHQYNNYPYTFGGGTKVEIKR
**Q.** Which results are given for B2?
**A.** inhibition of IGF-I-mediated AKT activation [1]: potently prevented AKT activation; inhibition of IGF-II-mediated IGF-1R phosphorylation and downstream AKT and MAPK1/2 activation [1]: remained as strong inhibitors; Effect of IR3, 6D2, 9F2, and 10H5 (SJCRH30): +
